Reference: the supplement of paper PMC7877785
± gives the uncertainty stated by the source.

Test: self-splicing fitness, log relative to wild type (ln ratio); higher = more splicing; Tetrahymena group I intron in knt gene, E. coli kanamycin selection, DiMSum; sequences stand for … in CUCUCU…GGAGGGAAAAGUUAUCAGGCAUGCACCUGGUAGCUAGUCUUUAAACCAAUAGAUUGCAUCGGUUUAAAAGGCAAGACCGUCAAAUUGCGGGAAAGGGGUCAACAGCCGUUCAGUACCAAGUCUCAGGGGAAACUUUGAGAUGGCCUUGCAAAGGGUAUGGUAAUAAGCUGACGGACAUGGUCCUAACCACGCAGCCAAGUCCUAAGUCAACAGAUCUUCUGUUGAUAUGGAUGCAGUUCACAGACUAAAUGUCGGUCGGGGAAGAUGUAUUCUUCUCAUAAGAUAUAGUCGGACCUCUCCUUAAUGGGAGCUAGCGGAUGAAGUGAUGCAACACUGGAGCCGCUGGGAACUAAUUUGUAUGCGAAAGUAUAUUGAUUAGUUUUGGAGUACUCGUGGUCG
How it was run: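 Fitness was computed with DiMSum as the error-weighted combination of replicate fold changes, kanamycin versus none, each normalised to wild type. The library randomised all eight intron nucleotides of the P1ex region, with the intron placed in the knt kanamycin-resistance gene on pET-22b(+) in E. coli BL21(DE3). Six replicate transformations were grown overnight at 37°C or 30°C on LB agar with or without 25 μg/mL kanamycin, plus 100 μg/mL carbenicillin, 50 μM IPTG and 0.2% rhamnose. Pooled colonies were amplicon-sequenced on an Illumina HiSeq 2500.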

| Sequence | self-splicing fitness (ln) (30 °C) | self-splicing fitness (ln) (37 °C) |
| --- | --- | --- |
| ACUAAGCAAUAUUACGAACU | -0.447 ± 0.083 | 0.532 ± 0.1 |
| ACUAAGCAAUAUUACGACAA | -1.63 ± 0.079 | -0.52 ± 0.1 |
| ACUAAGCAAUAUUACGAGAC | -2.89 ± 0.28 | -3.24 ± 0.35 |
| ACUAAGCAAUAUUACGAGAG | -3.17 ± 0.13 | -2.52 ± 0.15 |
| ACUAAGCAAUAUUACGAGUC | -3.83 ± 0.42 | -2.73 ± 0.2 |
| ACUAAGCAAUAUUACGAUAC | -2.39 ± 0.21 | -1.29 ± 0.22 |
| ACUAAGCAAUAUUACGAUCG | -0.981 ± 0.15 | 0.89 ± 0.18 |
| ACUAAGCAAUAUUACGCCAC | -2.45 ± 0.38 | – |
| ACUAAGCAAUAUUACGCGCA | -0.252 ± 0.067 | -0.518 ± 0.085 |
| ACUAAGCAAUAUUACGCGCC | 0.0442 ± 0.11 | -0.687 ± 0.14 |
| ACUAAGCAAUAUUACGCUAA | -3.83 ± 0.43 | -1.92 ± 0.38 |
| ACUAAGCAAUAUUACGCUCU | -0.0344 ± 0.097 | -0.566 ± 0.1 |
| ACUAAGCAAUAUUACGCUUU | -2.34 ± 0.17 | -1.97 ± 0.18 |
| ACUAAGCAAUAUUACGGACU | 0.14 ± 0.054 | 0.436 ± 0.076 |
| ACUAAGCAAUAUUACGGGAG | -2.5 ± 0.11 | -1.88 ± 0.14 |
| ACUAAGCAAUAUUACGGGCU | -0.833 ± 0.089 | -0.736 ± 0.083 |
| ACUAAGCAAUAUUACGGGGG | -3.59 ± 0.29 | -1.26 ± 0.17 |
| ACUAAGCAAUAUUACGGUAG | -4.09 ± 0.2 | -3.56 ± 0.2 |
| ACUAAGCAAUAUUACGGUUA | -2.02 ± 0.1 | -1.06 ± 0.086 |
| ACUAAGCAAUAUUACGUAGC | -2.96 ± 0.16 | -1.25 ± 0.13 |
| ACUAAGCAAUAUUACGUGCA | -1.37 ± 0.073 | -0.431 ± 0.11 |
| ACUAAGCAAUAUUACGUUCA | -1.29 ± 0.1 | -0.98 ± 0.098 |
| ACUAAGCAAUAUUACGUUCC | -2.41 ± 0.23 | -1.2 ± 0.29 |
| ACUCAGCAAUAUUACGAAAU | -1.11 ± 0.091 | 0.0403 ± 0.099 |

| Sequence | self-splicing fitness (ln) (30 °C) | self-splicing fitness (ln) (37 °C) |
| --- | --- | --- |
| ACUCAGCAAUAUUACGAAGC | -1.99 ± 0.19 | -1.46 ± 0.16 |
| ACUCAGCAAUAUUACGACGA | -0.9 ± 0.087 | -0.164 ± 0.11 |
| ACUCAGCAAUAUUACGAGCA | -0.632 ± 0.068 | 0.302 ± 0.092 |
| ACUCAGCAAUAUUACGAUCA | -0.712 ± 0.13 | -0.359 ± 0.12 |
| ACUCAGCAAUAUUACGAUCG | -1.54 ± 0.074 | -0.221 ± 0.12 |
| ACUCAGCAAUAUUACGAUCU | -0.0985 ± 0.064 | 0.407 ± 0.08 |
| ACUCAGCAAUAUUACGCUUC | -2.3 ± 0.094 | -1.48 ± 0.12 |
| ACUCAGCAAUAUUACGGAUA | -0.808 ± 0.15 | -0.834 ± 0.16 |
| ACUCAGCAAUAUUACGGUUA | -0.995 ± 0.08 | -0.513 ± 0.076 |
| ACUCAGCAAUAUUACGUAUC | -2.28 ± 0.14 | -1.66 ± 0.14 |
| ACUCAGCAAUAUUACGUAUU | -2.01 ± 0.081 | -0.892 ± 0.11 |
| ACUCAGCAAUAUUACGUCGG | -1.74 ± 0.07 | -1.25 ± 0.084 |
| ACUCAGCAAUAUUACGUCUU | -0.765 ± 0.046 | 0.0108 ± 0.062 |
| ACUCAGCAAUAUUACGUUAC | -4.33 ± 0.26 | -2.31 ± 0.18 |
| ACUCAGCAAUAUUACGUUAU | -2.29 ± 0.073 | -1.27 ± 0.086 |
| ACUCAGCAAUAUUACGUUGG | -3.63 ± 0.15 | -1.49 ± 0.096 |
| ACUGAGCAAUAUUACGCAGG | -3.15 ± 0.23 | -1.14 ± 0.13 |
| ACUGAGCAAUAUUACGCGAU | -3.36 ± 0.25 | -1.71 ± 0.14 |
| ACUGAGCAAUAUUACGCGGU | -2.46 ± 0.31 | – |
| ACUGAGCAAUAUUACGGAAA | -2.92 ± 0.27 | -2.61 ± 0.28 |
| ACUGAGCAAUAUUACGGCAA | -2.13 ± 0.14 | -2.33 ± 0.21 |
| ACUGAGCAAUAUUACGGGGG | -3.19 ± 0.16 | -2.17 ± 0.17 |
| ACUGAGCAAUAUUACGGUCU | -2.46 ± 0.12 | -1.57 ± 0.16 |
| ACUGAGCAAUAUUACGGUUG | -2.76 ± 0.14 | -1.73 ± 0.15 |

| Sequence | self-splicing fitness (ln) (30 °C) | self-splicing fitness (ln) (37 °C) |
| --- | --- | --- |
| ACUGAGCAAUAUUACGUAUU | -3.29 ± 0.12 | -1.48 ± 0.097 |
| ACUGAGCAAUAUUACGUCUG | -3.59 ± 0.28 | -2.43 ± 0.2 |
| ACUGAGCAAUAUUACGUGAG | -1.82 ± 0.063 | -1.36 ± 0.085 |
| ACUGAGCAAUAUUACGUGCU | -3.84 ± 0.41 | -2.28 ± 0.27 |
| ACUGAGCAAUAUUACGUUCU | -1.77 ± 0.14 | -1.48 ± 0.12 |
| ACUUAGCAAUAUUACGAAAC | -3.64 ± 0.32 | -1.65 ± 0.24 |
| ACUUAGCAAUAUUACGAAGA | -1.69 ± 0.12 | -1.24 ± 0.14 |
| ACUUAGCAAUAUUACGACAA | -1.55 ± 0.17 | -0.888 ± 0.28 |
| ACUUAGCAAUAUUACGAGGG | -3.07 ± 0.24 | -2.65 ± 0.23 |
| ACUUAGCAAUAUUACGAGGU | -3.47 ± 0.22 | -1.96 ± 0.21 |
| ACUUAGCAAUAUUACGAUUU | -0.382 ± 0.07 | 0.252 ± 0.092 |
| ACUUAGCAAUAUUACGCAGG | -2.19 ± 0.13 | -1.79 ± 0.15 |
| ACUUAGCAAUAUUACGCAUG | -1.76 ± 0.085 | -0.581 ± 0.11 |
| ACUUAGCAAUAUUACGCCAU | -2.99 ± 0.35 | -2.52 ± 0.38 |
| ACUUAGCAAUAUUACGCCCU | -0.568 ± 0.16 | 0.0637 ± 0.28 |
| ACUUAGCAAUAUUACGCCGG | -1.08 ± 0.14 | -0.478 ± 0.18 |
| ACUUAGCAAUAUUACGCCUU | -0.353 ± 0.095 | -0.14 ± 0.11 |
| ACUUAGCAAUAUUACGCGAA | -1.74 ± 0.12 | -2.14 ± 0.2 |
| ACUUAGCAAUAUUACGCUGA | -2.63 ± 0.49 | – |
| ACUUAGCAAUAUUACGGACA | -1.46 ± 0.14 | -0.798 ± 0.14 |
| ACUUAGCAAUAUUACGGACU | -0.341 ± 0.096 | 0.14 ± 0.16 |
| ACUUAGCAAUAUUACGGCAA | -0.92 ± 0.16 | -1.31 ± 0.23 |
| ACUUAGCAAUAUUACGGCCU | -0.24 ± 0.1 | 0.312 ± 0.11 |
| ACUUAGCAAUAUUACGGCUU | -0.359 ± 0.14 | -0.614 ± 0.19 |

| Sequence | self-splicing fitness (ln) (30 °C) | self-splicing fitness (ln) (37 °C) |
| --- | --- | --- |
| ACUUAGCAAUAUUACGGGGA | -1.38 ± 0.12 | -1.18 ± 0.15 |
| ACUUAGCAAUAUUACGGUGC | -3.78 ± 0.24 | -1.06 ± 0.17 |
| ACUUAGCAAUAUUACGUAGC | -2.76 ± 0.12 | -1.58 ± 0.13 |
| ACUUAGCAAUAUUACGUAUU | -2.02 ± 0.12 | -2.26 ± 0.17 |
| ACUUAGCAAUAUUACGUCGU | -1.99 ± 0.079 | -1.28 ± 0.088 |
| ACUUAGCAAUAUUACGUGCC | -0.96 ± 0.13 | -1.4 ± 0.15 |
| ACUUAGCAAUAUUACGUUGG | -1.67 ± 0.079 | -1.05 ± 0.11 |
| AGAAAGCAAUAUUACGAAUG | -2.38 ± 0.15 | -2.25 ± 0.19 |
| AGAAAGCAAUAUUACGACCA | -0.541 ± 0.11 | 0.144 ± 0.15 |
| AGAAAGCAAUAUUACGAUCA | 0.101 ± 0.083 | 0.0881 ± 0.11 |
| AGAAAGCAAUAUUACGAUGG | -2.28 ± 0.15 | -3.17 ± 0.35 |
| AGAAAGCAAUAUUACGCCAA | -3.75 ± 0.17 | -2.91 ± 0.069 |
| AGAAAGCAAUAUUACGCGAC | -2.25 ± 0.15 | -1.65 ± 0.18 |
| AGAAAGCAAUAUUACGCGCC | -0.784 ± 0.11 | 0.139 ± 0.14 |
| AGAAAGCAAUAUUACGCUCG | 0.431 ± 0.14 | 0.318 ± 0.18 |
| AGAAAGCAAUAUUACGGACG | -0.883 ± 0.085 | -0.116 ± 0.13 |
| AGAAAGCAAUAUUACGUAUU | -2.59 ± 0.13 | -1.27 ± 0.14 |
| AGAAAGCAAUAUUACGUGCG | -0.896 ± 0.092 | -0.684 ± 0.11 |
| AGAAAGCAAUAUUACGUGUA | -2.13 ± 0.1 | -0.737 ± 0.094 |
| AGAAAGCAAUAUUACGUUGC | -4 ± 0.13 | -3.36 ± 0.15 |
| AGACAGCAAUAUUACGAGAC | – | -1.59 ± 0.37 |
| AGACAGCAAUAUUACGAGUA | -3.42 ± 0.21 | -1.47 ± 0.15 |
| AGACAGCAAUAUUACGAUGU | -3.43 ± 0.12 | -0.886 ± 0.088 |
| AGACAGCAAUAUUACGAUUC | -1.12 ± 0.08 | -0.569 ± 0.11 |
